Measured values taken from the supplement of paper PMC11246515.
± gives the standard deviation of the averaged measurements.

Experiment: total protein half-life in vivo (active degradation + dilution); higher = more stable protein
[1] = E. coli NCM3722 delta-clpP delta-lon delta-hslV, growth: N-lim chemostat, doubling time 6 h
[2] = E. coli NCM3722 delta-clpP, growth: N-lim chemostat, doubling time 6 h
[3] = E. coli NCM3722 delta-hslV, growth: N-lim chemostat, doubling time 6 h
[4] = E. coli NCM3722 delta-smpB, growth: N-lim chemostat, doubling time 6 h
[5] = wild type E. coli NCM3722, growth: C-lim chemostat, doubling time 6 h
[6] = wild type E. coli NCM3722, growth: C-lim chemostat, doubling time 12 h
[7] = wild type E. coli NCM3722, growth: N-lim chemostat, doubling time 12 h
[8] = wild type E. coli NCM3722, growth: P-lim chemostat, doubling time 6 h
[9] = wild type E. coli NCM3722, growth: P-lim chemostat, doubling time 12 h
[10] = E. coli NCM3722 delta-lon, growth: N-lim chemostat, doubling time 6 h
[11] = wild type E. coli NCM3722, growth: C-lim chemostat, doubling time 3 h
[12] = wild type E. coli NCM3722, growth: N-lim chemostat, doubling time 6 h

Sequence | total protein half-life in vivo [1] | total protein half-life in vivo [2] | total protein half-life in vivo [3] | total protein half-life in vivo [4] | total protein half-life in vivo [5] | total protein half-life in vivo [6] | total protein half-life in vivo [7] | total protein half-life in vivo [8] | total protein half-life in vivo [9] | total protein half-life in vivo [10] | total protein half-life in vivo [11] | total protein half-life in vivo [12]
MKKSTLALVVMGIVASASVQAAEIYNKDGNKLDVYGKVKAMHYMSDNASKDGDQSYIRFGFKGETQINDQLTGYGRWEAEFAGNKAESDTAQQKTRLAFAGLKYKDLGSFDYGRNLGALYDVEAWTDMFPEFGGDSSAQTDNFMTKRASGLATYRNTDFFGVIDGLNLTLQYQGKNENRDVKKQNGDGFGTSLTYDFGGSDFAISGAYTNSDRTNEQNLQSRGTGKRAEAWATGLKYDANNIYLATFYSETRKMTPITGGFANKTQNFEAVAQYQFDFGLRPSLGYVLSKGKDIEGIGDEDLVNYIDVGATYYFNKNMSAFVDYKINQLDSDNKLNINNDDIVAVGMTYQF | 6.3 h | > 8 h | 6.65 ± 0.12 h | 6.18 ± 0.13 h | 5.98 ± 0.22 h | 12.6 ± 1.1 h | 11 ± 2.1 h | 6.41 ± 0.31 h | 13.9 ± 1.1 h |  |  | 
MSKPFKLNSAFKPSGDQPEAIRRLEEGLEDGLAHQTLLGVTGSGKTFTIANVIADLQRPTMVLAPNKTLAAQLYGEMKEFFPENAVEYFVSYYDYYQPEAYVPSSDTFIEKDASVNEHIEQMRLSATKAMLERRDVVVVASVSAIYGLGDPDLYLKMMLHLTVGMIIDQRAILRRLAELQYARNDQAFQRGTFRVRGEVIDIFPAESDDIALRVELFDEEVERLSLFDPLTGQIVSTIPRFTIYPKTHYVTPRERIVQAMEEIKEELAARRKVLLENNKLLEEQRLTQRTQFDLEMMNELGYCSGIENYSRFLSGRGPGEPPPTLFDYLPADGLLVVDESHVTIPQIGGMYRGDRARKETLVEYGFRLPSALDNRPLKFEEFEALAPQTIYVSATPGNYELEKSGGDVVDQVVRPTGLLDPIIEVRPVATQVDDLLSEIRQRAAINERVLVTTLTKRMAEDLTEYLEEHGERVRYLHSDIDTVERMEIIRDLRLGEFDVLVGINLLREGLDMPEVSLVAILDADKEGFLRSERSLIQTIGRAARNVNGKAILYGDKITPSMAKAIGETERRREKQQKYNEEHGITPQGLNKKVVDILALGQNIAKTKAKGRGKSRPIVEPDNVPMDMSPKALQQKIHELEGLMMQHAQNLEFEEAAQIRDQLHQLRELFIAAS [P0A8F8] | 5.26 ± 0.16 h | 4.561 ± 0.016 h | 2.99 ± 0.055 h | 2.85 ± 0.065 h | 4.02 ± 0.073 h | 6.348 ± 0.01 h | 4.85 ± 0.78 h | 3.67 ± 0.054 h | 5.85 ± 0.49 h | 3.39 ± 0.18 h | 2.44 ± 0.18 h | 2.96 ± 0.15 h
MKALTYHGPHHVQVENVPDPGVEQADDIILRITATAICGSDLHLYRGKIPQVKHGDIFGHEFMGEVVETGKDVKNLQKGDRVVIPFVIACGDCFFCRLQQYAACENTNAGKGAALNKKQIPAPAALFGYSHLYGGVPGGQAEYVRVPKGNVGPFKVPPLLSDDKALFLSDILPTAWQAAKNAQIQQGSSVAVYGAGPVGLLTIACARLLGAEQIFVVDHHPYRLHFAADRYGAIPINFDEDSDPAQSIIEQTAGHRGVDAVIDAVGFEAKGSTTETVLTNLKLEGSSGKALRQCIAAVRRGGIVSVPGVYAGFIHGFLFGDAFDKGLSFKMGQTHVHAWLGELLPLIEKGLLKPEEIVTHYMPFEEAARGYEIFEKREEECRKVILVPGAQSAEAAQKAVSGLVNAMPGGTI | 5.38 ± 0.18 h |  | 4.446 ± 0.011 h | 3.69 ± 2.5 h | 0.447 h | 10.2 h | 7.88 ± 0.2 h | 4.4 ± 0.32 h | 13.1 ± 3.3 h | 4.83 ± 0.24 h |  | 4.75 ± 0.35 h
MIKQRTLKRIVQATGVGLHTGKKVTLTLRPAPANTGVIYRRTDLNPPVDFPADAKSVRDTMLCTCLVNEHDVRISTVEHLNAALAGLGIDNIVIEVNAPEIPIMDGSAAPFVYLLLDAGIDELNCAKKFVRIKETVRVEDGDKWAEFKPYNGFSLDFTIDFNHPAIDSSNQRYAMNFSADAFMRQISRARTFGFMRDIEYLQSRGLCLGGSFDCAIVVDDYRVLNEDGLRFEDEFVRHKMLDAIGDLFMCGHNIIGAFTAYKSGHALNNKLLQAVLAKQEAWEYVTFQDDAELPLAFKAPSAVLA [P0A725] | 2.8 ± 0.28 h | 0.889 ± 0.17 h | 0.979 ± 0.33 h | 0.639 ± 0.021 h | 0.861 ± 0.11 h | 1.1 ± 0.33 h | 1.43 ± 0.28 h | 1.06 ± 0.19 h | 2.1 ± 0.78 h | 1.03 ± 0.011 h | 0.467 ± 0.1 h | 0.978 ± 0.12 h
MSKQQIGVVGMAVMGRNLALNIESRGYTVSIFNRSREKTEEVIAENPGKKLVPYYTVKEFVESLETPRRILLMVKAGAGTDAAIDSLKPYLDKGDIIIDGGNTFFQDTIRRNRELSAEGFNFIGTGVSGGEEGALKGPSIMPGGQKEAYELVAPILTKIAAVAEDGEPCVTYIGADGAGHYVKMVHNGIEYGDMQLIAEAYSLLKGGLNLTNEELAQTFTEWNNGELSSYLIDITKDIFTKKDEDGNYLVDVILDEAANKGTGKWTSQSALDLGEPLSLITESVFARYISSLKDQRVAASKVLSGPQAQPAGDKAEFIEKVRRALYLGKIVSYAQGFSQLRAASEEYNWDLNYGEIAKIFRAGCIIRAQFLQKITDAYAENPQIANLLLAPYFKQIADDYQQALRDVVAYAVQNGIPVPTFSAAVAYYDSYRAAVLPANLIQAQRDYFGAHTYKRIDKEGVFHTEWLD | 5.22 ± 0.18 h | 4.9 ± 0.45 h | 5 ± 0.17 h | 4.68 ± 0.083 h | 5.85 ± 0.4 h | 10 ± 0.24 h | 8.31 ± 0.24 h | 6.054 ± 0.042 h | 12.9 ± 1.8 h | 5.58 ± 0.25 h | 3.21 ± 0.06 h | 4.73 ± 0.23 h
MHLLVHPNGSKYWRLQYRYEGKQKMLALGVYPEITLADARVRRDEARKLLANGVDPGDKKKNDKVEQSKARTFKEVAIEWHGTNKKWSEDHAHRVLKSLEDNLFAALGERNIAELKTRDLLAPIKAVEMSGRLEVAARLQQRTTAIMRYAVQSGLIDYNPAQEMAGAVASCNRQHRPALELKRIPELLTKIDSYTGRPLTRWAIELTLLIFIRSSELRFARWSEIDFEASIWTIPPEREPIPGVKHSHRGSKMRTTHLVPLSTQALAILKQIKQFYGAHDLIFIGDHDSHKPMSENTVNSALRVMGYDTKVEVCGHGFRTMACSSLVESGLWSRDAVERQMSHMARNSVRAAYIHKAEHLEERRLMLQWWADFLDVNRERFISPFEYAKINNPLKQ | 5.06 ± 0.41 h | 4.91 h |  | 2.44 h | 5.13 h | 13.3 h |  | 4.82 h |  |  |  | 
MIRLSEQSPLGTGRHRKCYAHPEDAQRCIKIVYHRGDGGDKEIRRELKYYAHLGRRLKDWSGIPRYHGTVETDCGTGYVYDVIADFDGKPSITLTEFAEQCRYEEDIAQLRQLLKQLKRYLQDNRIVTMSLKPQNILCHRISESEVIPVVCDNIGESTLIPLATWSKWCCLRKQERLWKRFIAQPALAIALQKDLQPRESKTLALTSREA | 3.47 h |  |  |  | 7.68 h | 10.7 h |  |  |  |  | 3.22 h | 
